This note sets out measurements from patent US20130316376A1 (SPIBER TECHNOLOGIES, published 2013).

Test [1] deals with T1, albumin from human blood plasma (human, UniProt P02768 25-609).
T1 construct: mature; Native plasma protein; also called human albumin
Kind of test: films incubated with human blood plasma, low pH elution, non-reducing SDS-PAGE.

Test [2] addresses T2, albumin from rabbit serum (rabbit, UniProt P49065 25-608).
T2 construct: mature; Native serum protein; the form follows from the source (serum); also called albumin (~70 kDa)
Kind of test: fibers incubated with rabbit serum, low pH elution, non-reducing SDS-PAGE.

T2 sequence (P49065 25-608): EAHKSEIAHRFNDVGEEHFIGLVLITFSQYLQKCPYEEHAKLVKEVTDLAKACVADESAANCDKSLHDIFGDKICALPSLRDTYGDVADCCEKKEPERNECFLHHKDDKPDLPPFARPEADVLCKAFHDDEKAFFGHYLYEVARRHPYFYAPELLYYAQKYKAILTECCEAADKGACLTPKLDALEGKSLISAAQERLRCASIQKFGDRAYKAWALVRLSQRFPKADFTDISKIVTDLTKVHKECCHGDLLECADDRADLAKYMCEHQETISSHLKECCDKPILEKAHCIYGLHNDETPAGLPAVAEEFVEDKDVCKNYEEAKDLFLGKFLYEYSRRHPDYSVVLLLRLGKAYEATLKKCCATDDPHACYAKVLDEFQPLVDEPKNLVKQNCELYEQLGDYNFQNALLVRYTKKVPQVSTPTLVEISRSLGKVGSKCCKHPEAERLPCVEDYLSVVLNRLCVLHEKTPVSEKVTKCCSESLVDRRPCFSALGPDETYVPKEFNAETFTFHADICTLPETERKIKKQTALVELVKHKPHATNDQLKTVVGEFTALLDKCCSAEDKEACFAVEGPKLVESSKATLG

B1: His6AbdQGRep4CT (designed binder)
chain: MGSSGHHHHHHMLAEAKVLANRELDKYGVSDYYKNLINNAKTVEGVKALIDEILAALPLEALFQGPNSGQGGYGGLGQGGYGQGAGSSAAAAAAAAAAAAGGQGGQGQGGYGQGSGGSAAAAAAAAAAAAAAAGRGQGGYGQGSGGNAAAAAAAAAAAAAAAGQGGQGGYGRQSQGAGSAAAAAAAAAAAAAAGSGQGGYGGQGQGGYGQSSASASAAASAASTVANSVSRLSSPSAVSRVSSAVSSLVSNGQVNMAALPNIISNISSSVSASAPGASGCEVIVQALLEVITALVQIVSSSSVGYINPSAVNQITNVVANAMAQVMG
notes: tested as films and fibers; also called Abd-Rep4CT; HisAbdQG4RepCT
As to B1, the binding result in test [1] is recorded as “binds”.

B2: Rep4CT (Protease 3C cleavage product of His6ZQGRep4CT) (other)
chain: GQGGYGGLGQGGYGQGAGSSAAAAAAAAAAAAGGQGGQGQGGYGQGSGGSAAAAAAAAAAAAAAAGRGQGGYGQGSGGNAAAAAAAAAAAAAAAGQGGQGGYGRQSQGAGSAAAAAAAAAAAAAAGSGQGGYGGQGQGGYGQSSASASAAASAASTVANSVSRLSSPSAVSRVSSAVSSLVSNGQVNMAALPNIISNISSSVSASAPGASGCEVIVQALLEVITALVQIVSSSSVGYINPSAVNQITNVVANAMAQVMG
notes: made by cleaving His6ZQGRep4CT; also called GP-Rep4CT
In the case of B2, the binding result in test [2] is listed as “binds”.
